# Experimental data taken from patent US20110046355A1 (F STAR BIOTECHNOLOGISCHE FORSCHUNGS UND ENTWICKLUNGSGES M B …, published 2011).
# Legend:
# [1] = molecular target: T1, Fcab wt (non-randomized Fc fragment) expressed on yeast (human, UniProt P0DOX5 218-449 = IgG part); test: FACS of yeast-displayed Fcab wt, CD64 staining
# T1 construct: also called Fcab-wt expressing cells; not shown: N-terminal Aga2 display fusion (and CH1 in vector pYD1dXFc)
# [2] = molecular target: T2, wild type Fcab (human, UniProt P0DOX5 218-449 = IgG part, limits assumed); test: SPR, Fcab (10 ug/ml) captured on Protein A chip (3000 RU), human soluble CD64 at 5 ug/ml as analyte
# T2 construct: also called Fcab wt; wtFcab
# Description: Association with the neonatal Fc receptor (FcRn) was measured by adding 10 μg/ml Fcab to a Biacore CM5 chip coupled to 5000 response units (RU) of recombinant human FcRn at pH=6.0. The dissociation of Fcab from FcRn was tested at pH=7.4. […] Finally, human soluble CD64 at 5 μg/ml was added.
# [3] = molecular target: T3, Human soluble Her-2 (Bender Med Systems, Austria) (human, UniProt P04626 23-652, biotinylated (sulfo-LC-LC-biotin) when used for yeast FACS staining; unlabelled in ELISA and SPR); test: SPR, Biacore CM5 chip coated with human soluble Her-2, Fcab as analyte, BiaEval fit
# T3 construct: extracellular domain; given only as 'human soluble Her-2'; also called recombinant antigen Her2 (Bendermedsystems); Her2-biotin
# Description: (§1) Antigen binding was also determined by SPR. Biacore CM5 chips were coated with different amounts of human soluble Her-2 followed by addition of increasing concentrations of Fcabs. The affinity (KD) of the Fcabs was calculated from the resulting binding curves after fitting using the software BiaEval. […] Antigen binding was also assessed by FACS using the Her-2 over-expressing human breast cancer cell lines SKBR3 and Calu-3. 1×10⁵ cells were incubated with increasing concentrations of Fcabs for 60 minutes on ice. Then, unbound antibodies were removed by centrifugation and washing. Cell bound Fcabs were detected by incubation with anti-human Fc specific antibodies conjugated to phycoerythrin (Sigma) for 60 minutes on ice. After washing the cells, the intensity of fluorescence on the cell surface was measured in a FACS Calibur instrument (Beckton Dickinson).
# [4] = molecular target: T3, Human soluble Her-2 (Bender Med …); test: ELISA, human soluble Her-2 coated at 2 ug/ml, Fcab titrated, anti-Fc CH2-HRP detection
# Description: Human soluble Her-2 (Bender Med Systems, Austria) was coated to plastic at 2 μg/ml. After washing and blocking unspecific binding sites, increasing concentrations of Fcabs were added. To detect Her-2 bound Fcabs, anti-Fc CH2 domain specific monoclonal antibodies which were conjugated to horse radish peroxidase (Serotec) were added.
# [5] = molecular target: T4, Her-2 on Her-2 over-expressing human breast cancer cell lines SKBR3 and Calu-3 (human, UniProt P04626 23-1255); test: FACS on Her-2 over-expressing SKBR3 cells, anti-human Fc-PE detection
# T4 construct: whole, on cells; also called SKBR3 cells; Calu-3 cells
# Description: as §1
# [6] = molecular target: T4, Her-2 on Her-2 over-expressing human …; test: cell-based or functional assay
# [7] = molecular target: T3, Human soluble Her-2 (Bender Med …); test: assay not stated; told in the yeast display FACS selection and affinity maturation section (biotinylated Her2)
Binder,EC50 [4] [nM],EC50 [5] [nM],also measured
"human soluble CD64 (receptor, UniProt P12314 16-292, looked up, extracellular domain; Printed as 'human soluble CD64'; also called human CD64 (R&D Systems)) QVDTTKAVITLQPPWVSVFQEETVTLHCEVLHLPGSSSTQWFLNGTATQTSTPSYRITSASVNDSGEYRCQRGLSGRSDPIQLEIHRGWLLLQVSSRVFTEGEPLALRCHAWKDKLVYNVLYYRNGKAFKFFHWNSNLTILKTNISHNGTYHCSGMGKHRYTSAGISVTVKELFPAPVLNASVTSPLLEGNLVTLSCETKLLLQRPGLQLYFSFYMGSKTLRGRNTSSEYQILTARREDSGLYWCEAATEDGNVLKRSPELELQVLGLQLPTPVWFH",–,–,binding result [1]: binds; binding result [2]: binds
H561G3M1G4 (designed binder) EPKSCDKTHTCPPCPAPELLGGPSVFLFPPKPKDTLMISRTPEVTCVVVDVSHEDPEVKFNWYVDGVEVHNAKTKPREEQYNSTYRVVSVLTVLHQDWLNGKEYKCKVSNKALPAPIEKTISKAKGQPREPQVYTLPPSRDEFFTYWVSLTCLVKGFYPSDIAVEWESNGQPENNYKTTPPVLDSDGSFFLYSKLTVDRRRWTAGNVFSCSVMHEALHNHYTQKSLSLSPGK,263,–,Kd [3]: 7.5 nM
y-Her.C2.P4.2-9 (designed binder) EPKSCDKTHTCPPCPAPELLGGPSVFLFPPKPKDTLMISRTPEVTCVVVDVSHEDPEVKFNWYVDGVEVHNAKTKPREEQYNSTYRVVSVLTVLHQDWLNGKEYKCKVSNKALPAPIEKTISKAKGQPREPQVYTLPPSRDEYLHGDVSLTCLVKGFYPSDIAVEWESNGQPENNYKTTPPVLDSDGSFFLYSKLTVARYSPRMLRWAHGNVFSCSVMHEALHNHYTQKSLSLSPGK,4.3,–,–
EF3-17 (designed binder) EPKSCDKTHTCPPCPAPELLGGPSVFLFPPKPKDTLMISRTPEVTCVVVDVSHEDPEVKFNWYVDGVEVHNAKTKPREEQYNSTYRVVSVLTVLHQDWLNGKEYKCKVSNKALPAPIEKTISKAKGQPREPQVYTLPPSRDEYLHGDVSLTCLVKGFYPSDIAVEWESNGQPENNYKTTPPVLDSDGSFFLYSKLTVARHSRTMWRWGHGNVFSCSVMHEALHNHYTQKSLSLSPGK,4.7,1.3,–
"H10-03-6 (designed binder, also called H10-03-6 clone) EPKSCDKTHTCPPCPAPELLGGPSVFLFPPKPKDTLMISRTPEVTCVVVDVSHEDPEVKFNWYVDGVEVHNAKTKPREEQYNSTYRVVSVLTVLHQDWLNGKEYKCKVSNKALPAPIEKTISKAKGQPREPQVYTLPPSRDEYLYGDVSLTCLVKGFYPSDIAVEWESNGQPENNYKTTPPVLDSDGSFFLYSKLTVPRHSARMWRWAHGNVFSCSVMHEALHNHYTQKSLSLSPGK",4.8,10.3,"ADCC: SKBR3 cell killing by NK cells (7-AAD/CFSE double positive cells), EC50 [6]: 1.1 nM; Kd [3]: 8.6 nM; EC50 [7]: 18.9 nM"
y-Her.C2.P4.2-4 (designed binder) EPKSCDKTHTCPPCPAPELLGGPSVFLFPPKPKDTLMISRTPEVTCVVVDVSHEDPEVKFNWYVDGVEVHNAKTKPREEQYNSTYRVVSVLTVLHQDWLNGKEYKCKVSNKALPAPIEKTISKAKGQPREPQVYTLPPSRDEYSDGDVSLTCLVKGFYPSDIAVEWESNGQPENNYKTTPPVLDSDGSFFLYSKLTVARYSPRMLRWAHGNVFSCSVMHEALHNHYTQKSLSLSPGK,370,–,–
y-Her.C2.P4.2-19 (designed binder) EPKSCDKTHTCPPCPAPELLGGPSVFLFPPKPKDTLMISRTPEVTCVVVDVSHEDPEVKFNWYVDGVEVHNAKTKPREEQYNSTYRVVSVLTVLHQDWLNGKEYKCKVSNKALPAPIEKTISKAKGQPREPQVYTLPPSRDEYRSGEVSLTCLVKGFYPSDIAVEWESNGQPENNYKTTPPVLDSDGSFFLYSKLTVARYSPRMLRWAHGNVFSCSVMHEALHNHYTQKSLSLSPGK,93,–,–
y-Her.C2.P4.2-3 (designed binder) EPKSCDKTHTCPPCPAPELLGGPSVFLFPPKPKDTLMISRTPEVTCVVVDVSHEDPEVKFNWYVDGVEVHNAKTKPREEQYNSTYRVVSVLTVLHQDWLNGKEYKCKVSNKALPAPIEKTISKAKGQPREPQVYTLPPSRDEYASNTVSLTCLVKGFYPSDIAVEWESNGQPENNYKTTPPVLDSDGSFFLYSKLTVARYSPRMLRWAHGNVFSCSVMHEALHNHYTQKSLSLSPGK,463,–,–
"ABEFs0101 (designed binder, If read literally (148-197) a Val would be doubled) EPKSCDKTHTCPPCPAPELLGGPSVFLFPPKPKDTLMISRTPEVTCVVVDVSHEDPEVKFNWYVDGVEVHNAKTKPREEQYNSTYRVVSVLTVLHQDWLNGKEYKCKVSNKALPAPIEKTISKAKGQPREPQVYTLPPSRDEYLSADVSLTCLVKGFYPSDIAVEWESNGQPENNYKTTPPVLDSDGSFFLYSKLTVARYSPSMWRWGHGNVFSCSVMHEALHNHYTQKSLSLSPGK",16.1,5.2,"ADCC: SKBR3 cell killing by NK cells (7-AAD/CFSE double positive cells), EC50 [6]: 1 nM"
